How the values were obtained:
Human CLDN18.1 = target: T1, Human CLDN18.1 (human, UniProt P56856 1-261); experiment: flow cytometry, 293T-hCLDN18.1 cells
T1 construct: also called hCLDN18.1

Human CLDN18.2 [1] = target: Human CLDN18.2 (human); experiment: cell-based or functional assay
human CD3 antigen = target: T2, human CD3 antigen (human, UniProt P07766 23-126); experiment: SPR (Biacore T200), human CD3 antigen on CM5 chip
T2 construct: also called Human CD3ϵ
Procedure: After the detection was completed, data fitting was carried out on the result pattern by adopting Biacore T200 Evaluation Software in a 1:1 binding fitting mode to obtain an equilibrium dissociation constant (KD).

Human CLDN18.2 [2] = target: T3, Human CLDN18.2 (human); experiment: flow cytometry, NUGC4-hCLDN18.2 cells
T3 construct: the cell line is named under assay; also called hCLDN18.2; human CLDN18.2 antigen
Procedure: NUGC4 and NUGC4-hCLDN18.2 cells were cultured, digested with pancreatin and centrifuged to collect cells. The cells were collected and resuspended in buffer (PBS+1% FBS) at 1×10⁴ cells/well in a 96-well plate at 100 μL per well. Then the mixture was centrifuged at 350×g for 5 min, and the supernatant was removed.

Human CLDN18.2 [3] = target: T3, Human CLDN18.2; experiment: flow cytometry, NUGC4 cells (endogenous CLDN18.2)

Binder	binding result (Human CLDN18.1)	EC50 value for killing effect on NUGC4-hCLDN18.2 cells (Human CLDN18.2 [1]) [nM]	Kd (human CD3 antigen) [nM]	EC50 (Human CLDN18.2 [2]) [nM]	EC50 value for killing effect on NUGC4 cells (Human CLDN18.2 [1]) [nM]	EC50 (Human CLDN18.2 [3]) [nM]
bispecific antibody CS6 (bispecific antibody, human IgG1, kappa, CSBODY structure: two 175D10 Fab arms; second heavy chain (first heavy entry) and first heavy chain with anti-CD3 scFv (Di6-2) between CH1 and Fc2) light: DIVMTQSPSSLTVTAGEKVTMSCKSSQSLLNSGNQKNYLTWYQQKPGQPPKLLIYWASTRESGVPDRFTGSGSGTDFTLTISSVQAEDLAVYYCQNDYSYPFTFGSGTKLEIKRTVAAPSVFIFPPSDEQLKSGTASVVCLLNNFYPREAKVQWKVDNALQSGNSQESVTEQDSKDSTYSLSSTLTLSKADYEKHKVYACEVTHQGLSSPVTKSFNRGEC heavy 1: QVQLQQPGAELVRPGASVKLSCKASGYTFTSYWINWVKQRPGQGLEWIGNIYPSDSYTNYNQKFKDKATLTVDKSSSTAYMQLSSPTSEDSAVYYCTRSWRGNSFDYWGQGTTLTVSSASTKGPSVFPLAPSSKSTSGGTAALGCLVKDYFPEPVTVSWNSGALTSGVHTFPAVLQSSGLYSLSSVVTVPSSSLGTQTYICNVNHKPSNTKVDKKVEPKSCDKTHTCPPCPAPPVAGPSVFLFPPKPKDTLMISRTPEVTCVVVDVSHEAPEVQFNWYVDGVEVHNAKTKPREEQFNSTFRVVSVLTVVHQDWLNGKEYKCKVSNKGLPAPIEKTISKTKGQPREPQVYTLPPCRDELTKNQVSLWCLVKGFYPSDIAVEWESNGQPENNYKTTPPVLDSDGSFFLYSKLTVDKSRWQQGNVFSCSVMHEALHNHYTQKSLSLSPGK heavy 2: QVQLQQPGAELVRPGASVKLSCKASGYTFTSYWINWVKQRPGQGLEWIGNIYPSDSYTNYNQKFKDKATLTVDKSSSTAYMQLSSPTSEDSAVYYCTRSWRGNSFDYWGQGTTLTVSSASTKGPSVFPLAPSSKSTSGGTAALGCLVKDYFPEPVTVSWNSGALTSGVHTFPAVLQSSGLYSLSSVVTVPSSSLGTQTYICNVNHKPSNTKVDKKVEPKSCDKTHTAPAPAPAPAPAPAPAPQVQLVESGGGVVQPGRSLRLSCAASGFTFSTYAMNWVRQAPGKGLEWVGRIRSKYNNYATYYADSVKDRFTISRDDSKNTLYLQMNSLRGEDTAVYYCARHGNFGNSYVSWFAYWGQGTLVTVSSGGGGSGGGGSGGGGSQTVVTQEPSLTVSPGGTVTLTCRSSTGAVTTSNYANWVQQKPGQAPRGLIGGTNKRAPGVPARFSGSLLGGKAALTLSGVQPEDEAEYTCALWYSNLWVFGGGTKVEIKGGGGSDKTHTCPPCPAPPVAGPSVFLFPPKPKDTLMISRTPEVTCVVVDVSHEAPEVQFNWYVDGVEVHNAKTKPREEQFNSTFRVVSVLTVVHQDWLNGKEYKCKVSNKGLPAPIEKTISKTKGQPREPQVCTLPPSRDELTKNQVSLSCAVKGFYPSDIAVEWESNGQPENNYKTTPPVLDSDGSFFLVSKLTVDKSRWQQGNVFSCSVMHEALHNHYTQKSLSLSPGK	no binding	< 0.01	< 15	< 50	–	–
bispecific antibody CS7 (bispecific antibody, human IgG1, kappa, CSBODY structure: two 1E9.2 Fab arms; second heavy chain (first heavy entry) and first heavy chain with anti-CD3 scFv (Di6-2) between CH1 and Fc2) light: not shown heavy 1: EVQLVESGGGLVKPGGSLRLSCAASGFSFSNSAMSWVRQAPGKGLEWVSTISSGDSYTYYADSVKGRFTISRDNAKNSLYLQMNSLRAEDTAVYYCARQGYGNALDYWGQGTLVTVSSASTKGPSVFPLAPSSKSTSGGTAALGCLVKDYFPEPVTVSWNSGALTSGVHTFPAVLQSSGLYSLSSVVTVPSSSLGTQTYICNVNHKPSNTKVDKKVEPKSCDKTHTCPPCPAPPVAGPSVFLFPPKPKDTLMISRTPEVTCVVVDVSHEAPEVQFNWYVDGVEVHNAKTKPREEQFNSTFRVVSVLTVVHQDWLNGKEYKCKVSNKGLPAPIEKTISKTKGQPREPQVYTLPPCRDELTKNQVSLWCLVKGFYPSDIAVEWESNGQPENNYKTTPPVLDSDGSFFLYSKLTVDKSRWQQGNVFSCSVMHEALHNHYTQKSLSLSPGK heavy 2: EVQLVESGGGLVKPGGSLRLSCAASGFSFSNSAMSWVRQAPGKGLEWVSTISSGDSYTYYADSVKGRFTISRDNAKNSLYLQMNSLRAEDTAVYYCARQGYGNALDYWGQGTLVTVSSASTKGPSVFPLAPSSKSTSGGTAALGCLVKDYFPEPVTVSWNSGALTSGVHTFPAVLQSSGLYSLSSVVTVPSSSLGTQTYICNVNHKPSNTKVDKKVEPKSCDKTHTAPAPAPAPAPAPAPAPQVQLVESGGGVVQPGRSLRLSCAASGFTFSTYAMNWVRQAPGKGLEWVGRIRSKYNNYATYYADSVKDRFTISRDDSKNTLYLQMNSLRGEDTAVYYCARHGNFGNSYVSWFAYWGQGTLVTVSSGGGGSGGGGSGGGGSQTVVTQEPSLTVSPGGTVTLTCRSSTGAVTTSNYANWVQQKPGQAPRGLIGGTNKRAPGVPARFSGSLLGGKAALTLSGVQPEDEAEYTCALWYSNLWVFGGGTKVEIKGGGGSDKTHTCPPCPAPPVAGPSVFLFPPKPKDTLMISRTPEVTCVVVDVSHEAPEVQFNWYVDGVEVHNAKTKPREEQFNSTFRVVSVLTVVHQDWLNGKEYKCKVSNKGLPAPIEKTISKTKGQPREPQVCTLPPSRDELTKNQVSLSCAVKGFYPSDIAVEWESNGQPENNYKTTPPVLDSDGSFFLVSKLTVDKSRWQQGNVFSCSVMHEALHNHYTQKSLSLSPGK	no binding	< 0.01	< 15	< 50	< 0.01	< 100
bispecific antibody Y18 (bispecific antibody, human IgG1, kappa, YBODY structure: anti-CLDN18.2 Fab arm (1E9.2) and second monomer anti-CD3 scFv (L2K)-Fc) light: not shown heavy: EVQLVESGGGLVKPGGSLRLSCAASGFSFSNSAMSWVRQAPGKGLEWVSTISSGDSYTYYADSVKGRFTISRDNAKNSLYLQMNSLRAEDTAVYYCARQGYGNALDYWGQGTLVTVSSASTKGPSVFPLAPSSKSTSGGTAALGCLVKDYFPEPVTVSWNSGALTSGVHTFPAVLQSSGLYSLSSVVTVPSSSLGTQTYICNVNHKPSNTKVDKKVEPKSCDKTHTCPPCPAPPVAGPSVFLFPPKPKDTLMISRTPEVTCVVVDVSHEAPEVQFNWYVDGVEVHNAKTKPREEQFNSTFRVVSVLTVVHQDWLNGKEYKCKVSNKGLPAPIEKTISKTKGQPREPQVYTLPPCRDELTKNQVSLWCLVKGFYPSDIAVEWESNGQPENNYKTTPPVLDSDGSFFLYSKLTVDKSRWQQGNVFSCSVMHEALHNHYTQKSLSLSPGK not shown	no binding	< 0.01	–	< 50	< 0.01	< 100
bispecific antibody CS10 (bispecific antibody, human IgG1, kappa, CSBODY structure: two 1E9.2 Fab arms; second heavy chain (first heavy entry) and first heavy chain with anti-CD3 scFv (L2K) between CH1 and Fc2) light: not shown heavy 1: EVQLVESGGGLVKPGGSLRLSCAASGFSFSNSAMSWVRQAPGKGLEWVSTISSGDSYTYYADSVKGRFTISRDNAKNSLYLQMNSLRAEDTAVYYCARQGYGNALDYWGQGTLVTVSSASTKGPSVFPLAPSSKSTSGGTAALGCLVKDYFPEPVTVSWNSGALTSGVHTFPAVLQSSGLYSLSSVVTVPSSSLGTQTYICNVNHKPSNTKVDKKVEPKSCDKTHTCPPCPAPPVAGPSVFLFPPKPKDTLMISRTPEVTCVVVDVSHEAPEVQFNWYVDGVEVHNAKTKPREEQFNSTFRVVSVLTVVHQDWLNGKEYKCKVSNKGLPAPIEKTISKTKGQPREPQVYTLPPCRDELTKNQVSLWCLVKGFYPSDIAVEWESNGQPENNYKTTPPVLDSDGSFFLYSKLTVDKSRWQQGNVFSCSVMHEALHNHYTQKSLSLSPGK heavy 2: not shown	no binding	< 0.01	–	< 50	< 0.01	< 100
bispecific antibody CS8 (bispecific antibody, human IgG1, kappa, CSBODY structure: two 2C6.9 Fab arms; second heavy chain (first heavy entry) and first heavy chain with anti-CD3 scFv (Di6-2) between CH1 and Fc2) light: not shown heavy 1: QVQLQESGPGLVKPSETLSLTCTVSGFSLTRYGVSWIRQPPGKGLEWIGVIWGEGNTNYNPSLKSRVTISKDSSKSQVSLKLSSVTAADTAVYYCARVNFGNALDYWGQGTLVTVSSASTKGPSVFPLAPSSKSTSGGTAALGCLVKDYFPEPVTVSWNSGALTSGVHTFPAVLQSSGLYSLSSVVTVPSSSLGTQTYICNVNHKPSNTKVDKKVEPKSCDKTHTCPPCPAPPVAGPSVFLFPPKPKDTLMISRTPEVTCVVVDVSHEAPEVQFNWYVDGVEVHNAKTKPREEQFNSTFRVVSVLTVVHQDWLNGKEYKCKVSNKGLPAPIEKTISKTKGQPREPQVYTLPPCRDELTKNQVSLWCLVKGFYPSDIAVEWESNGQPENNYKTTPPVLDSDGSFFLYSKLTVDKSRWQQGNVFSCSVMHEALHNHYTQKSLSLSPGK heavy 2: QVQLQESGPGLVKPSETLSLTCTVSGFSLTRYGVSWIRQPPGKGLEWIGVIWGEGNTNYNPSLKSRVTISKDSSKSQVSLKLSSVTAADTAVYYCARVNFGNALDYWGQGTLVTVSSASTKGPSVFPLAPSSKSTSGGTAALGCLVKDYFPEPVTVSWNSGALTSGVHTFPAVLQSSGLYSLSSVVTVPSSSLGTQTYICNVNHKPSNTKVDKKVEPKSCDKTHTAPAPAPAPAPAPAPAPQVQLVESGGGVVQPGRSLRLSCAASGFTFSTYAMNWVRQAPGKGLEWVGRIRSKYNNYATYYADSVKDRFTISRDDSKNTLYLQMNSLRGEDTAVYYCARHGNFGNSYVSWFAYWGQGTLVTVSSGGGGSGGGGSGGGGSQTVVTQEPSLTVSPGGTVTLTCRSSTGAVTTSNYANWVQQKPGQAPRGLIGGTNKRAPGVPARFSGSLLGGKAALTLSGVQPEDEAEYTCALWYSNLWVFGGGTKVEIKGGGGSDKTHTCPPCPAPPVAGPSVFLFPPKPKDTLMISRTPEVTCVVVDVSHEAPEVQFNWYVDGVEVHNAKTKPREEQFNSTFRVVSVLTVVHQDWLNGKEYKCKVSNKGLPAPIEKTISKTKGQPREPQVCTLPPSRDELTKNQVSLSCAVKGFYPSDIAVEWESNGQPENNYKTTPPVLDSDGSFFLVSKLTVDKSRWQQGNVFSCSVMHEALHNHYTQKSLSLSPGK	no binding	< 0.01	< 15	< 50	< 0.01	< 100
bispecific antibody CS11 (bispecific antibody, human IgG1, kappa, CSBODY structure: two 2C6.9 Fab arms; second heavy chain (first heavy entry) and first heavy chain with anti-CD3 scFv (L2K) between CH1 and Fc2) light: not shown heavy 1: QVQLQESGPGLVKPSETLSLTCTVSGFSLTRYGVSWIRQPPGKGLEWIGVIWGEGNTNYNPSLKSRVTISKDSSKSQVSLKLSSVTAADTAVYYCARVNFGNALDYWGQGTLVTVSSASTKGPSVFPLAPSSKSTSGGTAALGCLVKDYFPEPVTVSWNSGALTSGVHTFPAVLQSSGLYSLSSVVTVPSSSLGTQTYICNVNHKPSNTKVDKKVEPKSCDKTHTCPPCPAPPVAGPSVFLFPPKPKDTLMISRTPEVTCVVVDVSHEAPEVQFNWYVDGVEVHNAKTKPREEQFNSTFRVVSVLTVVHQDWLNGKEYKCKVSNKGLPAPIEKTISKTKGQPREPQVYTLPPCRDELTKNQVSLWCLVKGFYPSDIAVEWESNGQPENNYKTTPPVLDSDGSFFLYSKLTVDKSRWQQGNVFSCSVMHEALHNHYTQKSLSLSPGK heavy 2: not shown	no binding	< 0.01	–	< 50	< 0.01	< 100
